What was measured:
[1] = tested on: MCF7 cells; format: cell-based
[2] = tested on: L363 (BCMA+) cells; format: cell-based
[3] = tested on: RAJI cells; test: JNG (Jurkat NFAT-GFP) cells expressing SAR: GFP induction on co-culture with RAJI
[4] = tested on: RAJI cells; test: JNG assay, co-culture with RAJI cells; format: cell-based; conditions: JNG cells expressing construct, co-culture with Raji
Summary of the method: (§1)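 Read-out is NFAT-driven GFP measured by flow cytometry after ~4–18 h co-culture of SAR-expressing JNG cells with target cells (E:T about 1:2). SARs were introduced by lentiviral spinfection and selected with puromycin or blasticidin when possible; scores (+/- to 5+ ≈ 5–50% GFP+) are relative to parental JNG cells.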

[5] = tested on: RAJI-CD19-KO cells; test: JNG assay, co-culture with RAJI-CD19-KO cells; format: cell-based; conditions: co-culture with Raji-CD19-KO
Summary of the method: as §1

[6] = tested on: L363 cells; test: JNG assay, co-culture with L363 cells; format: cell-based; conditions: co-culture with L363
Summary of the method: as §1

[7] = tested on: RS;411; test: JNG assay, co-culture with RS;411 cells; format: cell-based; conditions: co-culture with RS411
Summary of the method: as §1

[8] = tested on: L363-CD38-KO; test: JNG NFAT-GFP assay, co-culture with L363-CD38-KO cells; format: cell-based
[9] = tested on: Daudi cells expressing luciferase; test: Daudi-luciferase i.p. model in NSG mice, CD16 SAR-T plus rituximab; format: in vivo; conditions: rituximab plus 1 × 10^7 SAR-T cells, IL-2, NSG mice
Description: Use of universal SAR-T cells expressing CD16 as the antigen binding domain. Daudi cells expressing luciferase are injected intraperitoneally (i.p.; 0.3 × 10^6 cells/mouse) in NSG mice (Jackson Laboratory). Some mice receive rituximab ([…]) i.p. Human T cells (1 × 10^7) expressing CD8SP-hu-mROO5-1-vL-[hTCRb-S57C]-F-P2A-IgSP-Apa-CD16-V158-v2-G4Sx3v2-hu-mROO5-1-vH-[hTCRa-T48C] (SEQ ID NO: 4725) SAR are injected four days after Daudi inoculation. Control mice receive tissue culture medium instead of rituximab or T cells. Rituximab injection is repeated weekly for 4 weeks, with no further T lymphocyte injection. All mice receive intraperitoneal injections of 1,000-2,000 IU of IL-2 twice a week for 4 weeks.

B1: 21873 (protein)
chain: MALPVTALLLPLALLLHAARPDIQMTQSPSSLSASVGDRVTITCRASQDISSYLNWYQQKPGKAPKLLIYYTSRLHSGVPSRFSGSGSGTDFTLTISSLQPEDFATYYCQQGNTLPYTFGQGTKVEIKRLEDLKNVFPPEVAVFEPSEAEISHTQKATLVCLATGFYPDHVELSWWVNGKEVHSGVCTDPQPLKEQPALNDSRYCLSSRLRVSATFWQNPRNHFRCQVQFYGLSENDEWTQDRAKPVTQIVSAEAWGRADCGFTSESYQQGVLSATILYEILLGKATLYAVLVSALVLMAMVKRKDSRGRAKRSGSGATNFSLLKQAGDVEENPGPTSMDWIWRILFLVGAATGAHSFEVQLVESGGGLVQPGGSLRLSCAASGYTFSDYFMSWVRQAPGKGLEWVATISNGGTYTYYPDSVKGRFTISRDNSKNTLYLQMNSLRAEDTAVYYCARFDGYIFDYWGQGTLVTVSSTRIQNPDPAVYQLRDSKSSDKSVCLFTDFDSQTNVSQSKDSDVYITDKCVLDMRSMDFKSNSAVAWSNKSDFACANAFNNSIIPEDTFFPSPESSCDVKLVEKSFETDTNLNFQNLSVIGFRILLLKVAGFNLLMTLRLWSSRAKRSGSGVKQTLNFDLLKLAGDVESNPGPSRGHMTEYKPTVRLATRDDVPRAVRTLAAAFADYPATRHTVDPDRHIERVTELQELFLTRVGLDIGKVWVADDGAAVAVWTTPESVEAGAVFAEIGPRMAELSGSRLAAQQQMEGLLAPHRPKEPAWFLATVGVSPDHQGKGLGSAVVLPGVEAAERAGVPAFLETSAPRNLPFYERLGFTVTADVEVPEGPRTWCMTRKPGA
Question: For B1, which “NFAT-GFP ASSAY: MCF-7” value [1] is on record?
Answer: did not show GFP induction

B2: 6821 (protein)
chain: MALPVTALLLPLALLLHAARPQLQLQESGPGLVKPSETLSLTCTVSGDSISSGDYYWGWIRQPPGKGLEWIGHIYYSGVTYYNPSLKSRVTISVDTSRNQFSLKLSSVTAADTAVYYCTREDSSNWRSRGQGTLVTVSSLEGQPKANPTVTLFPPSSEELQANKATLVCLISDFYPGAVTVAWKADGSPVKAGVETTKPSKQSNNKYAASSYLSLTPEQWKSHRSYSCQVTHEGSTVEKTVAPTECSPIKTDVITMDPKDNCSKDANDTLLLQLTNTSAYYMYLLLLLKSVVYFAIITCCLLRRTAFCCNGEKSRAKRSGSGATNFSLLKQAGDVEENPGPTSMDWIWRILFLVGAATGAHSFEVQLLESGGGLIQPGGSLRLSCAASGFTFSSHAMTWVRQAPGKGLEWVSAISGSGDYTHYADSVKGRFTISRDNSKNTVYLQMNSLRAEDSAVYYCAKDEDGGSLLGHRGQGTLVTVSSTRASTKGPSVFPLAPSSKSTSGGTAALGCLVKDYFPEPVTVSWNSGALTSGVHTFPAVLQSSGLYSLSSVVTVPSSSLGTQTYICNVNHKPSNTKVDKRVEPKSCEVKTDSTDHVKPKETENTKQPSKSCHKPKAIVHTEKVNMMSLTVLGLRMLFAKTVAVNFLLTAKLFFLRAKRSGSGVKQTLNFDLLKLAGDVESNPGPSRGHMTEYKPTVRLATRDDVPRAVRTLAAAFADYPATRHTVDPDRHIERVTELQELFLTRVGLDIGKVWVADDGAAVAVWTTPESVEAGAVFAEIGPRMAELSGSRLAAQQQMEGLLAPHRPKEPAWFLATVGVSPDHQGKGLGSAVVLPGVEAAERAGVPAFLETSAPRNLPFYERLGFTVTADVEVPEGPRTWCMTRKPGA
modifications: Synthetic Polynucloetide
Question: For B2, which “GFP expression on co-culture with L363 (BCMA+)” value [2] is on record?
Answer: strongly induced GFP expression

Question: What about the “GFP expression on co-culture with RAJI” value [3] of the same molecule?
Answer: strongly induced GFP expression

B3: 22128 (protein)
chain: MALPVTALLLPLALLLHAARPQVQLVESGGGLVQPGGSLRLSCAASGFTFTNHAMSWVRQAPGKGLELVSSISGNGRTTYYADSVKGRFTISRDISKNTLDLQMNSLRAEDTAVYYCAKDGGETLVDSRGQGTLVTVSSLEGGGGSGGGGSIEGGGGSGGGGSKVQLLESGGGLVQPGGSLRLSCAASGFIFSSYAMSWVRQAPGKGQEWVSGVSGTGVNTYYADSVKGRFTISRDNSKNTLYLQMNSLRAEDTAVYYCASGKGWDSGSWYEDYRGQGTLVTVSSGTGGGGSGGGGSGGGGSEFDIQMTQSPSSLSASVGDRVTITCKASDHINNWLAWYQQKPGQAPKLLIYGATTLETGVPSRFSGSGSGTDYTLTISSLQPEDFATYYCQQSWNTPWTFGQGTKLEIKRLEDLKNVFPPEVAVFEPSEAEISHTQKATLVCLATGFYPDHVELSWWVNGKEVHSGVCTDPQPLKEQPALNDSRYCLSSRLRVSATFWQNPRNHFRCQVQFYGLSENDEWTQDRAKPVTQIVSAEAWGRADCGFTSESYQQGVLSATILYEILLGKATLYAVLVSALVLMAMVKRKDSRGRAKRSGSGATNFSLLKQAGDVEENPGPTSMDWIWRILFLVGAATGAHSFEQVQLQQPGAELVKPGASVKMSCKASGYAFSSYWINWMKQKPGQGLEWIGQIYPGDGDTNYNGKFKGRATLTADTSSSTAYMQLSSLTSEDSAVYFCARSITTVVGCAMDYWGQGTSVTVSSTRIQNPDPAVYQLRDSKSSDKSVCLFTDFDSQTNVSQSKDSDVYITDKCVLDMRSMDFKSNSAVAWSNKSDFACANAFNNSIIPEDTFFPSPESSCDVKLVEKSFETDTNLNFQNLSVIGFRILLLKVAGFNLLMTLRLWSSRAKRSGSGVKQTLNFDLLKLAGDVESNPGPSRAHMTEYKPTVRLATRDDVPRAVRTLAAAFADYPATRHTVDPDRHIERVTELQELFLTRVGLDIGKVWVADDGAAVAVWTTPESVEAGAVFAEIGPRMAELSGSRLAAQQQMEGLLAPHRPKEPAWFLATVGVSPDHQGKGLGSAVVLPGVEAAERAGVPAFLETSAPRNLPFYERLGFTVTADVEVPEGPRTWCMTRKPGA
Question: What does the source list for B3?
Answer: NFAT-GFP ASSAY: Raji [4]: 3+ (refer to approximately 5%, 10%, 20%, 30%, 40% and 50% GFP positive cells); NFAT-GFP ASSAY: Raji-CD19-KO [5]: 2+ (refer to approximately 5%, 10%, 20%, 30%, 40% and 50% GFP positive cells); NFAT-GFP ASSAY: L363 [6]: 2+ (refer to approximately 5%, 10%, 20%, 30%, 40% and 50% GFP positive cells); NFAT-GFP ASSAY: RS411 [7]: 2+ (refer to approximately 5%, 10%, 20%, 30%, 40% and 50% GFP positive cells); NFAT-GFP ASSAY: L363-CD38-KO [8]: 2+ (refer to approximately 5%, 10%, 20%, 30%, 40% and 50% GFP positive cells)

B4: 4725 (protein)
chain: MALPVTALLLPLALLLHAARPDIQMTQSPSSLSASVGDRVTITCKASDHINNWLAWYQQKPGQAPKLLIYGATTLETGVPSRFSGSGSGTDYTLTISSLQPEDFATYYCQQSWNTPWTFGQGTKLEIKRLEDLKNVFPPEVAVFEPSEAEISHTQKATLVCLATGFYPDHVELSWWVNGKEVHSGVCTDPQPLKEQPALNDSRYCLSSRLRVSATFWQNPRNHFRCQVQFYGLSENDEWTQDRAKPVTQIVSAEAWGRADCGFTSESYQQGVLSATILYEILLGKATLYAVLVSALVLMAMVKRKDSRGRAKRSGSGATNFSLLKQAGDVEENPGPTSMDWIWRILFLVGAATGAHSGPQVQLQESGGGLAQAGGSLRLSCAASGRTFSMGWFRQAPGKEREFVAAITYSGGSPYYASSVRGRFTISRDNAKNTVYLQMNSLKPEDTAVYYCAANPTYGSDWNAENWGQGTQVTVSSGSGGGGSGGGGSGGGGSFEQVQLQQPGAELVKPGASVKMSCKASGYAFSSYWINWMKQKPGQGLEWIGQIYPGDGDTNYNGKFKGRATLTADTSSSTAYMQLSSLTSEDSAVYFCARSITTVVGCAMDYWGQGTSVTVSSTRIQNPDPAVYQLRDSKSSDKSVCLFTDFDSQTNVSQSKDSDVYITDKCVLDMRSMDFKSNSAVAWSNKSDFACANAFNNSIIPEDTFFPSPESSCDVKLVEKSFETDTNLNFQNLSVIGFRILLLKVAGFNLLMTLRLWSSRAKRSGSGVKQTLNFDLLKLAGDVESNPGPSRGHMTEYKPTVRLATRDDVPRAVRTLAAAFADYPATRHTVDPDRHIERVTELQELFLTRVGLDIGKVWVADDGAAVAVWTTPESVEAGAVFAEIGPRMAELSGSRLAAQQQMEGLLAPHRPKEPAWFLATVGVSPDHQGKGLGSAVVLPGVEAAERAGVPAFLETSAPRNLPFYERLGFTVTADVEVPEGPRTWCMTRKPGA
modifications: Synthetic Polynucloetide
Question: With B4 as the molecule, how does the “tumor growth, Daudi-luciferase i.p.” value [9] read?
Answer: reduced tumor growth

From US20230212319A1, “NOVEL ANTIGEN BINDING DOMAINS AND SYNTHETIC ANTIGEN RECEPTORS INCORPORATING THE SAME” (University of Southern California, priority 2020, published 2023)
